The target of data set [1] is T1, HIV-1 reverse transcriptase p66/p51, wild-type (HIV-1, UniProt P04585;P04585 588-1147;588-1027). The data set is described as follows: EMSA; EFV titrated (ligand Kd); Bmax 5.53%; DEC binding buffer not in the material; 6% non-denaturing PAGE; DEC defined as resistant to excess competitor template; primer/template annealed 1:1.3 in 50 mM. Conditions: protein: recombinant; tags: N-terminal 6-His; copies: 1;1; label: 5'-32P primer; template overhangs: 5' 8 nt, 3' 8 nt.

Data set [2] concerns the target T1, HIV-1 reverse transcriptase p66/p51, …. The data set is described as follows: EMSA; TFV-DP titrated (ligand Kd); Bmax 15.3%; DEC binding buffer not in the material; 6% non-denaturing PAGE; DEC defined as resistant to excess competitor template; primer/template annealed 1:1.3 in 50 mM. Conditions: protein: recombinant; tags: N-terminal 6-His; copies: 1;1; label: 5'-32P primer; template overhangs: 5' 8 nt, 3' 8 nt.

For data set [3] the target is unchanged. The data set is described as follows: EMSA; EFV titrated (ligand Kd); Bmax 14.9%; DEC binding buffer not in the material; 6% non-denaturing PAGE; DEC defined as resistant to excess competitor template; primer/template annealed 1:1.3 in 50 mM. The conditions noted are these: protein: recombinant; tags: N-terminal 6-His; copies: 1;1; label: 5'-32P primer; template overhangs: 5' 8 nt, 3' 8 nt.

For data set [4] the target is unchanged. The data set is described as follows: EMSA; dATP titrated (ligand Kd); Bmax 38.0%; DEC binding buffer not in the material; 6% non-denaturing PAGE; DEC defined as resistant to excess competitor template; primer/template annealed 1:1.3 in 50 mM. The conditions noted are these: protein: recombinant; tags: N-terminal 6-His; copies: 1;1; label: 5'-32P primer; template overhangs: 5' 8 nt, 3' 8 nt.

The target is the same in data set [5]. The data set is described as follows: EMSA; FTC-TP titrated (ligand Kd); Bmax 60.2%; DEC binding buffer not in the material; 6% non-denaturing PAGE; DEC defined as resistant to excess competitor template; primer/template annealed 1:1.3 in 50 mM. Conditions: protein: recombinant; tags: N-terminal 6-His; copies: 1;1; label: 5'-32P primer; template 5' overhang 24 nt, other end blunt.

Data set [6] shares this target. The data set is described as follows: EMSA; EFV titrated (ligand Kd); Bmax 11.2%; DEC binding buffer not in the material; 6% non-denaturing PAGE; DEC defined as resistant to excess competitor template; primer/template annealed 1:1.3 in 50 mM. The conditions noted are these: protein: recombinant; tags: N-terminal 6-His; copies: 1;1; label: 5'-32P primer; template 5' overhang 24 nt, other end blunt.

Data set [7] has the same target. The data set is described as follows: EMSA; dCTP titrated (ligand Kd); Bmax 55.8%; DEC binding buffer not in the material; 6% non-denaturing PAGE; DEC defined as resistant to excess competitor template; primer/template annealed 1:1.3 in 50 mM. The conditions noted are these: protein: recombinant; tags: N-terminal 6-His; copies: 1;1; label: 5'-32P primer; template 5' overhang 24 nt, other end blunt.

For data set [8] the target is unchanged. The data set is described as follows: EMSA; EFV titrated (ligand Kd); Bmax 44.4%; DEC binding buffer not in the material; 6% non-denaturing PAGE; DEC defined as resistant to excess competitor template; primer/template annealed 1:1.3 in 50 mM. The conditions noted are these: protein: recombinant; tags: N-terminal 6-His; copies: 1;1; label: 5'-32P primer; template 5' overhang 24 nt, other end blunt.

The target is the same in data set [9]. The data set is described as follows: EMSA; dCTP titrated (ligand Kd); Bmax 50.0%; DEC binding buffer not in the material; 6% non-denaturing PAGE; DEC defined as resistant to excess competitor template; primer/template annealed 1:1.3 in 50 mM. The conditions noted are these: protein: recombinant; tags: N-terminal 6-His; copies: 1;1; label: 5'-32P primer; template 5' overhang 24 nt, other end blunt.

Data set [10] shares this target. The data set is described as follows: EMSA; FTC-TP titrated (ligand Kd); Bmax 50.0%; DEC binding buffer not in the material; 6% non-denaturing PAGE; DEC defined as resistant to excess competitor template; primer/template annealed 1:1.3 in 50 mM. Conditions: protein: recombinant; tags: N-terminal 6-His; copies: 1;1; label: 5'-32P primer; template 5' overhang 24 nt, other end blunt.

Data set [11] has the same target. The data set is described as follows: EMSA; dATP titrated (ligand Kd); Bmax 60%; DEC binding buffer not in the material; 6% non-denaturing PAGE; DEC defined as resistant to excess competitor template; primer/template annealed 1:1.3 in 50 mM. The conditions noted are these: protein: recombinant; tags: N-terminal 6-His; copies: 1;1; label: 5'-32P primer; template 5' overhang 23 nt, other end blunt.

For data set [12] the target is unchanged. The data set is described as follows: EMSA; EFV titrated (ligand Kd); Bmax 10.6%; DEC binding buffer not in the material; 6% non-denaturing PAGE; DEC defined as resistant to excess competitor template; primer/template annealed 1:1.3 in 50 mM. Conditions: protein: recombinant; tags: N-terminal 6-His; copies: 1;1; label: 5'-32P primer; template 5' overhang 23 nt, other end blunt.

For data set [13] the target is unchanged. The data set is described as follows: EMSA; TFV-DP titrated (ligand Kd); Bmax 55%; DEC binding buffer not in the material; 6% non-denaturing PAGE; DEC defined as resistant to excess competitor template; primer/template annealed 1:1.3 in 50 mM. The conditions noted are these: protein: recombinant; tags: N-terminal 6-His; copies: 1;1; label: 5'-32P primer; template 5' overhang 23 nt, other end blunt.

For data set [14] the target is unchanged. The data set is described as follows: EMSA; EFV titrated (ligand Kd); Bmax 3.96%; DEC binding buffer not in the material; 6% non-denaturing PAGE; DEC defined as resistant to excess competitor template; primer/template annealed 1:1.3 in 50 mM. The conditions noted are these: protein: recombinant; tags: N-terminal 6-His; copies: 1;1; label: 5'-32P primer; template 5' overhang 23 nt, other end blunt.

B1: D20/D36C, FTC-MP-terminated (dsDNA)
DNA 1: GTCCCTGTTCGGGCGCCACC
DNA 2: TCTCTAATGGTGGCGCCCGAACAGGGACCTGAAAGC
modifications: 3'-terminal C of primer is emtricitabine-MP
B1: the “apparent K (half saturation)” value in [1] amounted to 1540 ± 330 nM.

B2: D20/D36C, ddCMP-terminated (dsDNA)
DNA 1: GTCCCTGTTCGGGCGCCACC
DNA 2: B1 DNA 2
modifications: 3'-terminal C of primer is ddCMP
Take B2: the “apparent K (half saturation)” value came to 445 ± 114 µM in [2], 1030 ± 250 nM in data set [3] and 16.9 ± 8.5 µM in data set [4].

B3: D26/D50, ddAMP-terminated (dsDNA)
DNA 1: CTGAGACAACATCTGCTGAGGTAGGA
DNA 2: TGTCGTGTGGTGTCGTGTGGTATGTCCTACCTCAGCAGATGTTGTCTCAG
modifications: 3'-terminal A of primer is ddAMP
Take B3: the “apparent K (half saturation)” value in data set [5] came out at 86.8 ± 0.2 µM; in data set [6], 2420 ± 1100 nM; in data set [7] it was 8.1 ± 2.1 µM.

B4: D26/D50, TFV-terminated (dsDNA)
DNA 1: CTGAGACAACATCTGCTGAGGTAGGA
DNA 2: B3 DNA 2
modifications: 3'-terminal A of primer is tenofovir (chain terminator)
On to B4, for which the “apparent K (half saturation)” value was 1220 ± 280 nM in data set [8], 179 ± 33 µM in data set [9] and 46.5 ± 7.8 µM in [10].

B5: D27/D50, ddCMP-terminated (dsDNA)
DNA 1: CTGAGACAACATCTGCTGAGGTAGGAC
DNA 2: B3 DNA 2
modifications: 3'-terminal C of primer is ddCMP
For the molecule B5, the “apparent K (half saturation)” value turned out to be 6.5 ± 2.6 µM in data set [11], 110 ± 60 nM in data set [12] and 140 ± 19 µM in data set [13].

B6: D27/D50, FTC-MP-terminated (dsDNA)
DNA 1: CTGAGACAACATCTGCTGAGGTAGGAC
DNA 2: B3 DNA 2
modifications: 3'-terminal C of primer is emtricitabine-MP
Consider B6, for which the “apparent K (half saturation)” value in data set [14] was 1260 ± 240 nM.

The record behind these values is publication PMC2693498, “The triple combination of tenofovir, emtricitabine and efavirenz shows synergistic anti-HIV-1 activity in vitro: a mechanism of action study”.
